# Source: patent US20260008815A1, “CYCLIC PEPTIDE OR SALT THEREOF, AND USES THEREOF” (FUJIFILM Corporation, priority 2023, published 2026)
# Bridge positions count the residues as written; N and C are the ends. Ends that are not written are not given here. COCH2 = acetyl group that carries the bridge
# B1: cyclic peptide SEQ ID NO: 419 (peptide)
# peptide: DCHTREDWQIHHLYQLLYQLK(COCH2)Y
# modifications: thioether 2-21 (inferred)
# B2: cyclic peptide SEQ ID NO: 401 (peptide)
# peptide: QCQFLNYVNHVQWHYFWVFK(COCH2)S
# modifications: thioether 2-20
# B3: cyclic peptide SEQ ID NO: 381 (peptide)
# peptide: VCQEYYLYQYVYELK(COCH2)Y
# modifications: thioether 2-15
# B4: cyclic peptide SEQ ID NO: 380 (peptide)
# peptide: YCPPQLVYLYQYLYK(COCH2)L
# modifications: thioether 2-15
# B5: cyclic peptide SEQ ID NO: 417 (peptide)
# peptide: LCQIYLYLTALQQGFEDFYPK(COCH2)N
# modifications: thioether 2-21 (inferred)
# B6: cyclic peptide SEQ ID NO: 384 (peptide)
# peptide: QCQLYYLYQYTIAIK(COCH2)T
# modifications: thioether 2-15
# B7: cyclic peptide SEQ ID NO: 383 (peptide)
# peptide: QCQLYYLYQYAYALK(COCH2)V
# modifications: thioether 2-15
# B8: cyclic peptide SEQ ID NO: 428 (peptide)
# peptide: ECDQAQQVYALIYRYLYQLQK(COCH2)V
# modifications: thioether 2-21 (inferred)
# B9: cyclic peptide SEQ ID NO: 426 (peptide)
# peptide: PCDPLNLQQWYTAVYQLWHK(COCH2)R
# modifications: thioether 2-20 (inferred)
# B10: cyclic peptide SEQ ID NO: 431 (peptide)
# peptide: CHENYLDPEQYQYFHYFK(COCH2)
# modifications: thioether 1-18 (inferred)
# B11: cyclic peptide SEQ ID NO: 413 (peptide)
# peptide: QCDQDAIQWVYDLQYYRVWHK(COCH2)V
# modifications: thioether 2-21 (inferred)
# B12: cyclic peptide SEQ ID NO: 69 (peptide)
# peptide: KCPQNFINPVQWRYFQHYAKN
# modifications: thioether ring (C)-(K(acetyl))
# B13: cyclic peptide SEQ ID NO: 423 (peptide)
# peptide: WCFTEGIQSTVQLTYSYLYK(COCH2)L
# modifications: thioether 2-20 (inferred)
# B14: cyclic peptide SEQ ID NO: 400 (peptide)
# peptide: VCQQDNYFYPQQWFFFVHYK(COCH2)H
# modifications: thioether 2-20
# B15: cyclic peptide SEQ ID NO: 404 (peptide)
# peptide: DCIRPYDQLQLIYQYLYQLK(COCH2)K
# modifications: thioether 2-20; not fully specified; printed as D-(C)-IRPYDQLQLIYQYLYQL-(K(acetyl))-K
# B16: cyclic peptide SEQ ID NO: 408 (peptide)
# peptide: HCSQHQTTYYQIYAYLHAIK(COCH2)I
# modifications: thioether 2-20 (inferred)
# B17: cyclic peptide SEQ ID NO: 411 (peptide)
# peptide: TCVDKDNWYNHVQWQYFFLYK(COCH2)Q
# modifications: thioether 2-21
# B18: cyclic peptide SEQ ID NO: 405 (peptide)
# peptide: QCLTQRVYLRQLAYYRLYRK(COCH2)I
# modifications: thioether 2-20 (inferred)
# B19: cyclic peptide SEQ ID NO: 416 (peptide)
# peptide: LCTQFPASQRYYFALYRLWHK(COCH2)S
# modifications: thioether 2-21 (inferred)
# B20: cyclic peptide SEQ ID NO: 422 (peptide)
# peptide: YCTQEQAFRQLAYYQIFRRSK(COCH2)S
# modifications: thioether 2-21 (inferred)
# B21: cyclic peptide SEQ ID NO: 410 (peptide)
# peptide: WCQESSNYLAPLQWYFFNWYK(COCH2)T
# modifications: thioether 2-21 (inferred)
# B22: cyclic peptide SEQ ID NO: 420 (peptide)
# peptide: YCEAQPYYFQLYRLWHRQEK(COCH2)P
# modifications: thioether 2-20 (inferred)
# B23: cyclic peptide SEQ ID NO: 385 (peptide)
# peptide: QCAYYHLYQYLHQLK(COCH2)V
# modifications: thioether 2-15
# B24: cyclic peptide SEQ ID NO: 425 (peptide)
# peptide: GCGYTQLHYQHLFAWLHARK(COCH2)V
# modifications: thioether 2-20 (inferred)
# B25: cyclic peptide SEQ ID NO: 409 (peptide)
# peptide: LCNNWENYFDWLQWSYYIAYK(COCH2)E
# modifications: thioether 2-21 (inferred)
# B26: cyclic peptide SEQ ID NO: 429 (peptide)
# peptide: YCHENYLDPEQYQYFHYFK(COCH2)
# modifications: thioether 2-19 (inferred)
# B27: cyclic peptide SEQ ID NO: 68 (peptide)
# peptide: KCQNFINPVQWRYFQHYKN
# modifications: not fully specified; thioether ring (C)-(K(acetyl))
# B28: cyclic peptide SEQ ID NO: 414 (peptide)
# peptide: YCNYEWDGARRQIAYYRIFLK(COCH2)L
# modifications: thioether 2-21 (inferred)
# B29: cyclic peptide SEQ ID NO: 402 (peptide)
# peptide: PCEVYNYWYPTQWFFFTQFK(COCH2)K
# modifications: thioether 2-20; not fully specified; printed as P-(C)-EVYNYWYPTQWFFFTQF-(K(acetyl))-K
# B30: cyclic peptide SEQ ID NO: 424 (peptide)
# peptide: VCTQPQQDFELIYQYLYQLAK(COCH2)Q
# modifications: thioether 2-21 (inferred)
# B31: cyclic peptide SEQ ID NO: 403 (peptide)
# peptide: ACRRANWIHPIQWFFFHVYK(COCH2)H
# modifications: thioether 2-20
# B32: cyclic peptide SEQ ID NO: 418 (peptide)
# peptide: DCLRQQVYQYLYILFQNDIAK(COCH2)D
# modifications: thioether 2-21 (inferred)
# B33: cyclic peptide SEQ ID NO: 388 (peptide)
# peptide: RCHHNFHHARQHGFFYHYK(COCH2)R
# modifications: thioether 2-19
# B34: cyclic peptide SEQ ID NO: 389 (peptide)
# peptide: RCHHNFHHARQHGFFWHYK(COCH2)R
# modifications: thioether 2-19
# B35: cyclic peptide SEQ ID NO: 387 (peptide)
# peptide: RCHHNFHHARQHRFFHHYK(COCH2)R
# modifications: thioether 2-19
# B36: cyclic peptide SEQ ID NO: 386 (peptide)
# peptide: RCHHNFHHARQWGFFHHYK(COCH2)R
# modifications: thioether 2-19
# B37: cyclic peptide SEQ ID NO: 421 (peptide)
# peptide: VCLDEQQALFHQYYRITRRK(COCH2)V
# modifications: thioether 2-20 (inferred)
# B38: cyclic peptide SEQ ID NO: 427 (peptide)
# peptide: ECDTADYPQEWIQDVYQYLYK(COCH2)R
# modifications: thioether 2-21 (inferred)
# B39: cyclic peptide SEQ ID NO: 70 (peptide)
# peptide: KCAPQNFINPVQWRYFQHYKN
# modifications: thioether ring (C)-(K(acetyl))
# B40: cyclic peptide SEQ ID NO: 430 (peptide)
# peptide: CHENYLDPEQYQYFHYFK(COCH2)Y
# modifications: thioether 1-18 (inferred)
# B41: cyclic peptide SEQ ID NO: 412 (peptide)
# peptide: QCEYALQYYRFYVAQRHWVDK(COCH2)L
# modifications: thioether 2-21 (inferred)
# B42: cyclic peptide SEQ ID NO: 406 (peptide)
# peptide: PCEQQNFHSVIQWHFFAQYK(COCH2)N
# modifications: thioether 2-20 (inferred)
# B43: cyclic peptide SEQ ID NO: 415 (peptide)
# peptide: YCDWVEVANARQLAYYTLYRK(COCH2)K
# modifications: thioether 2-21
# B44: cyclic peptide SEQ ID NO: 407 (peptide)
# peptide: LCVQGNYQNPTQWYYFQLYK(COCH2)W
# modifications: thioether 2-20 (inferred)
# B45: cyclic peptide SEQ ID NO: 382 (peptide)
# peptide: PCDRQLYYLYQYIHK(COCH2)T
# modifications: thioether 2-15
# Target: T1, Recombinant Human FGFR2 alpha (IIIc) Fc Chimera Protein, CF (R&D systems, 712-FR-050) (human, UniProt P21802 22-377)
# T1 construct: bought; not shown: Fc part of the chimera
# T1 sequence (P21802 22-377, change not shown): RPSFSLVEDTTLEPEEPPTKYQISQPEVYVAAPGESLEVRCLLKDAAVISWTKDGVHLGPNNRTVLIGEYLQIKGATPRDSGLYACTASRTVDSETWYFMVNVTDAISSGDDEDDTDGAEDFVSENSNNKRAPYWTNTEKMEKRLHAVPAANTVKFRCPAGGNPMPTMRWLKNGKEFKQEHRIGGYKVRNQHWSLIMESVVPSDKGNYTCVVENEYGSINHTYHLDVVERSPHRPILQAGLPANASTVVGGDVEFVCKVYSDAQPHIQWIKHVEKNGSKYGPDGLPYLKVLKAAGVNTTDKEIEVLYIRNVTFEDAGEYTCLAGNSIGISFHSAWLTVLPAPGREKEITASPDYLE
# Assay: ELISA on plate-bound FGFR2-Fc
# In short: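 Peptide binding scored by category from dose-response of background-corrected luminescence (FGFR-coated minus uncoated wells). Detection via anti-Myc antibody (2 h, room temperature) after 3 h peptide incubation on wells coated with 5 ng FGFR2 alpha (IIIc)-Fc.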
row,Binder,"ELISA luminescence signal at 10 nmol/L peptide, relative to SEQ ID NO: 47 (=1)"
1,B1,0.1 to 0.5 ratio
2,B2,0.1 to 0.5 ratio
3,B3,0.1 to 0.5 ratio
4,B4,0.1 to 0.5 ratio
5,B5,0.1 to 0.5 ratio
6,B6,0.1 to 0.5 ratio
7,B7,0.1 to 0.5 ratio
8,B8,0.1 to 0.5 ratio
9,B9,0.1 to 0.5 ratio
10,B10,0.1 to 0.5 ratio
11,B11,0.1 to 0.5 ratio
12,B12,0.1 to 0.5 ratio
13,B13,0.1 to 0.5 ratio
14,B14,≥ 0.7 ratio
15,B15,0.1 to 0.5 ratio
16,B16,0.1 to 0.5 ratio
17,B17,≥ 0.7 ratio
18,B18,0.1 to 0.5 ratio
19,B19,0.1 to 0.5 ratio
20,B20,0.1 to 0.5 ratio
21,B21,≥ 0.7 ratio
22,B22,0.1 to 0.5 ratio
23,B23,0.5 to 0.7 ratio

row,Binder,"ELISA luminescence signal at 10 nmol/L peptide, relative to SEQ ID NO: 47 (=1)"
1,B24,0.1 to 0.5 ratio
2,B25,≥ 0.7 ratio
3,B26,0.1 to 0.5 ratio
4,B27,≥ 0.7 ratio
5,B28,0.1 to 0.5 ratio
6,B29,≥ 0.7 ratio
7,B30,0.1 to 0.5 ratio
8,B31,0.5 to 0.7 ratio
9,B32,0.1 to 0.5 ratio
10,B33,0.1 to 0.5 ratio
11,B34,0.1 to 0.5 ratio
12,B35,0.1 to 0.5 ratio
13,B36,0.5 to 0.7 ratio
14,B37,0.1 to 0.5 ratio
15,B38,0.1 to 0.5 ratio
16,B39,0.5 to 0.7 ratio
17,B40,≥ 0.7 ratio
18,B41,0.1 to 0.5 ratio
19,B42,≥ 0.7 ratio
20,B43,0.1 to 0.5 ratio
21,B44,0.5 to 0.7 ratio
22,B45,0.1 to 0.5 ratio
